Assay results taken from PMC8184587.

T1: BRM AT (AT-hook alone) (Homo sapiens, UniProt P51531 1358-1377)
T1 chain: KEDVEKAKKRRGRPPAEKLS


Tests used:
BRM AT (AT-hook alone) = biological target: T1, BRM AT (AT-hook alone); assay: NMR
ATGGGP-L-BD = ATGGGP-L-BD (Homo sapiens, UniProt P51531-2 1358-1490, R1368G;R1370G); assay: NMR
ATDGDP-L-BD = ATDGDP-L-BD (Homo sapiens, UniProt P51531-2 1358-1490, R1368D;R1370D); assay: NMR
BRM AT-L-BD WT (BRM-B) [1] = biological target: T2, BRM AT-L-BD WT (BRM-B) (Homo sapiens, UniProt P51531-2 1358-1490); assay: NMR
BRM AT-L-BD WT (BRM-B) [2] = biological target: T2, BRM AT-L-BD WT (BRM-B); assay: fluorescence anisotropy
AT-LANAA-BD = AT-LANAA-BD (Homo sapiens, UniProt P51531-2 1358-1490, P1378A;P1380A;P1381A); assay: fluorescence anisotropy

Binder | Kd (BRM AT (AT-hook alone)) [µM] | Kd (ATGGGP-L-BD) [µM] | Kd (ATDGDP-L-BD) [µM] | Kd (BRM AT-L-BD WT (BRM-B) [1]) [µM] | Kd (BRM AT-L-BD WT (BRM-B) [2]) [µM] | Kd (AT-LANAA-BD) [µM]
10 bp NMR dsDNA (dsDNA) DNA 1: CTCAATTGGT DNA 2: ACCAATTGAG | 220 ± 30 | 130 ± 30 | 410 ± 70 | ~3 | – | –
DNA.FA 12 bp dsDNA (dsDNA) DNA 1: CCTCAATTGGTC DNA 2: GACCAATTGAGG | – | – | – | – | 8 ± 1 | 4 ± 1
